The target in experiment [1] is T1, human CD38 Fc-fusion aa 45-300 (human, UniProt P28907 45-300).
T1 construct: Expressed in HEK293 behind a human Vkappa leader, which is left out here; also called CD38-Fc fusion protein; CD38 Fc-Fusion protein
The experiment is described as follows: ELISA on CD38 Fc-fusion protein, IgG format.

For experiment [2], the target named is CD38 (antigen of the Bioveris affinity determination) (Homo sapiens (Human), UniProt P28907 45-300, limits assumed). The experiment is described as follows: Bioveris, Fab format.
Experiment [3] has as its target T1, human CD38 Fc-fusion aa 45-300. The experiment is described as follows: SPR (Biacore), Fab format. Background: SPR reads the build-up and loss of mass on a sensor chip optically.
The target in another experiment is T2, human CD38 on cells (human, UniProt P28907 1-300).
T2 construct: The cell that carried CD38 is named under assay in each row; also called CD38 on Raji, RPMI8226, OPM2, CCRF-CEM, human erythrocytes, CD38 CHO-K1 transfectants
The experiment is described as follows: FACS Scatchard on RPMI8226 cells.

This is an account of results in patent publication US20240309109A1 (MorphoSys, published 2024).

One may read the Kd as the equilibrium constant for the complex coming apart. High values mean a looser complex, low ones a tighter complex. The EC50 is the concentration that produces a half-maximal response. A high value points to weaker potency.

B1: MOR06195 IgG (antibody, V domains shown)
VH: QVQLVESGGGLVQPGGSLRLSCAASGFTFSSYYMNWVRQAPGKGLEWVSAISGNGGHTYYADSVKGRFTISRDNSKNTLYLQMNSLRAEDTAVYYCARDLPLVYTGFAYWGQGTLVTVSS
VL: DIELTQPPSVSVAPGQTARISCSGDNLRHYYVYWYQQKPGQAPVLVIYGDSKRPSGIPERFSGSNSGNTATLTISGTQAEDEADYYCQTYTGGASLVFGGGTKLTVLG
notes: copies: 2 + 2
Turning to B1, in experiment [1], the “ELISA CD38 Fc-Fusion protein (% Reactivity of MOR03087)” value amounted to 155%.

B2: MOR06200 Fab (Fab, V domains shown)
VH: QVQLVESGGGLVQPGGSLRLSCAASGFTFSSYYMNWVRQAPGKGLEWVSAISNNGNVTYYADSVKGRFTISRDNSKNTLYLQMNSLRAEDTAVYYCARDLPLVYTGFAYWGQGTLVTVSS
VL: DIELTQPPSVSVAPGQTARISCSGDNLRHYYVYWYQQKPGQAPVLVIYGDSKRPSGIPERFSGSNSGNTATLTISGTQAEDEADYYCQTYTGGASLVFGGGTKLTVL
notes: Fab format
With B2, the Kd came to 0.0599 nM in experiment [2] and 7.92 nM in experiment [3]. Also, the 50% effective concentration (EC50) with human CD38 on cells came out at 5.02 nM.

B3: MOR06192 Fab (Fab, V domains shown)
VH: QVQLVESGGGLVQPGGSLRLSCAASGFTFSSYYMNWVRQAPGKGLEWVSVISPGGEAKSYADSVKGRFTISRDNSKNTLYLQMNSLRAEDTAVYYCARDLPLVYTGFAYWGQGTLVTVSS
VL: DIELTQPPSVSVAPGQTARISCSGDNLRHYYVYWYQQKPGQAPVLVIYGDSKRPSGIPERFSGSNSGNTATLTISGTQAEDEADYYCQTYTGGASLVFGGGTKLTVL
notes: Fab format
For B3, the results for the Kd in experiment [2] and in experiment [3] were 0.0747 nM and 5.01 nM, respectively. This molecule also gave an EC50 in the experiment with human CD38 on cells of 7.07 nM.

B4: MOR06185 Fab (Fab, V domains shown)
VH: QVQLVESGGGLVQPGGSLRLSCAASGFTFSSYYMNWVRQAPGKGLEWVSAISMNGDYISYADSVKGRFTISRDNSKNTLYLQMNSLRAEDTAVYYCARDLPLVYTGFAYWGQGTLVTVSS
VL: DIELTQPPSVSVAPGQTARISCSGDNLRHYYVYWYQQKPGQAPVLVIYGDSKRPSGIPERFSGSNSGNTATLTISGTQAEDEADYYCQTYTGGASLVFGGGTKLTVL
notes: Fab format
As to B4, the Kd stood at 0.0137 nM in experiment [2] and 4.39 nM in experiment [3]. A half-maximal effect with human CD38 on cells (EC50) was put at 7.3 nM.

B5: MOR06184 Fab (Fab, V domains shown)
VH: QVQLVESGGGLVQPGGSLRLSCAASGFTFSSYYMNWVRQAPGKGLEWVSAISHDGNVKYYADSVKGRFTISRDNSKNTLYLQMNSLRAEDTAVYYCARDLPLVYTGFAYWGQGTLVTVSS
VL: DIELTQPPSVSVAPGQTARISCSGDNLRHYYVYWYQQKPGQAPVLVIYGDSKRPSGIPERFSGSNSGNTATLTISGTQAEDEADYYCQTYTGGASLVFGGGTKLTVL
notes: Fab format
For B5, the values for the Kd in experiment [2] and in experiment [3] were 0.0662 nM and 9.68 nM, respectively. The molecule further showed an EC50 with human CD38 on cells of 4.01 nM.

B6: MOR06183 Fab (Fab, V domains shown)
VH: QVQLVESGGGLVQPGGSLRLSCAASGFTFSSYYMNWVRQAPGKGLEWVSGINMESTRIYYADSVKGRFTISRDNSKNTLYLQMNSLRAEDTAVYYCARDLPLVYTGFAYWGQGTLVTVSS
VL: DIELTQPPSVSVAPGQTARISCSGDNLRHYYVYWYQQKPGQAPVLVIYGDSKRPSGIPERFSGSNSGNTATLTISGTQAEDEADYYCQTYTGGASLVFGGGTKLTVL
notes: Fab format
Turning to B6, the Kd in experiment [2] was determined as 0.026 nM; in experiment [3], 13.5 nM. It took 28.1 nM to reach a half-maximal effect with human CD38 on cells (EC50).

B7: MOR06201 Fab (Fab, V domains shown)
VH: QVQLVESGGGLVQPGGSLRLSCAASGFTFSSYYMNWVRQAPGKGLEWVSAISMHGDTTYYADSVKGRFTISRDNSKNTLYLQMNSLRAEDTAVYYCARDLPLVYTGFAYWGQGTLVTVSS
VL: DIELTQPPSVSVAPGQTARISCSGDNLRHYYVYWYQQKPGQAPVLVIYGDSKRPSGIPERFSGSNSGNTATLTISGTQAEDEADYYCQTYTGGASLVFGGGTKLTVL
notes: Fab format
Turning to B7, the Kd is 0.0186 nM in experiment [2] and 6.81 nM in experiment [3]. In addition, the midpoint of the response with human CD38 on cells, the EC50, lay at 9 nM.

B8: MOR06197 IgG (antibody, V domains shown)
VH: QVQLVESGGGLVQPGGSLRLSCAASGFTFSSYYMNWVRQAPGKGLEWVSAISMDGVYKYYADSVKGRFTISRDNSKNTLYLQMNSLRAEDTAVYYCARDLPLVYTGFAYWGQGTLVTVSS
VL: DIELTQPPSVSVAPGQTARISCSGDNLRHYYVYWYQQKPGQAPVLVIYGDSKRPSGIPERFSGSNSGNTATLTISGTQAEDEADYYCQTYTGGASLVFGGGTKLTVLG
notes: copies: 2 + 2
On to B8, for which the “ELISA CD38 Fc-Fusion protein (% Reactivity of MOR03087)” value in experiment [1] came out at 138%.

B9: MOR06197 Fab (Fab, V domains shown)
VH: QVQLVESGGGLVQPGGSLRLSCAASGFTFSSYYMNWVRQAPGKGLEWVSAISMDGVYKYYADSVKGRFTISRDNSKNTLYLQMNSLRAEDTAVYYCARDLPLVYTGFAYWGQGTLVTVSS
VL: DIELTQPPSVSVAPGQTARISCSGDNLRHYYVYWYQQKPGQAPVLVIYGDSKRPSGIPERFSGSNSGNTATLTISGTQAEDEADYYCQTYTGGASLVFGGGTKLTVL
notes: Fab format
B9: the Kd in experiment [2] stood at 0.0127 nM; in experiment [3] it was 4.81 nM. Also, in the experiment with human CD38 on cells, the EC50 is 6.92 nM.

B10: MOR06188 Fab (Fab, V domains shown)
VH: QVQLVESGGGLVQPGGSLRLSCAASGFTFSSYYMNWVRQAPGKGLEWVSAISTNGWQTYYADSVKGRFTISRDNSKNTLYLQMNSLRAEDTAVYYCARDLPLVYTGFAYWGQGTLVTVSS
VL: DIELTQPPSVSVAPGQTARISCSGDNLRHYYVYWYQQKPGQAPVLVIYGDSKRPSGIPERFSGSNSGNTATLTISGTQAEDEADYYCQTYTGGASLVFGGGTKLTVL
notes: Fab format
B10: the Kd in experiment [2] is 0.0593 nM; in experiment [3], 3.96 nM. This molecule also returned an EC50 with human CD38 on cells of 22.7 nM.

B11: MOR06186 Fab (Fab, V domains shown)
VH: QVQLVESGGGLVQPGGSLRLSCAASGFTFSSYYMNWVRQAPGKGLEWVSAINLSGSAKYYADSVKGRFTISRDNSKNTLYLQMNSLRAEDTAVYYCARDLPLVYTGFAYWGQGTLVTVSS
VL: DIELTQPPSVSVAPGQTARISCSGDNLRHYYVYWYQQKPGQAPVLVIYGDSKRPSGIPERFSGSNSGNTATLTISGTQAEDEADYYCQTYTGGASLVFGGGTKLTVL
notes: Fab format
With B11, the Kd turned out to be 0.00509 nM in experiment [2] and 4.62 nM in experiment [3]. Moreover, the half-maximal effective concentration (EC50) with human CD38 on cells was found to be 6.47 nM.

B12: MOR06195 Fab (Fab, V domains shown)
VH: QVQLVESGGGLVQPGGSLRLSCAASGFTFSSYYMNWVRQAPGKGLEWVSAISGNGGHTYYADSVKGRFTISRDNSKNTLYLQMNSLRAEDTAVYYCARDLPLVYTGFAYWGQGTLVTVSS
VL: DIELTQPPSVSVAPGQTARISCSGDNLRHYYVYWYQQKPGQAPVLVIYGDSKRPSGIPERFSGSNSGNTATLTISGTQAEDEADYYCQTYTGGASLVFGGGTKLTVL
notes: Fab format
As for B12, the Kd in experiment [2] was found to be 0.0557 nM; in experiment [3], 4.52 nM. The same molecule showed an EC50 with human CD38 on cells of 5.6 nM.

B13: MOR06187 Fab (Fab, V domains shown)
VH: QVQLVESGGGLVQPGGSLRLSCAASGFTFSSYYMNWVRQAPGKGLEWVSAISSNGDITYYADSVKGRFTISRDNSKNTLYLQMNSLRAEDTAVYYCARDLPLVYTGFAYWGQGTLVTVSS
VL: DIELTQPPSVSVAPGQTARISCSGDNLRHYYVYWYQQKPGQAPVLVIYGDSKRPSGIPERFSGSNSGNTATLTISGTQAEDEADYYCQTYTGGASLVFGGGTKLTVL
notes: Fab format
As for B13, the figures for the Kd in experiment [2] and in experiment [3] were 0.0454 nM and 12.5 nM, respectively. The same molecule had an EC50 in the experiment with human CD38 on cells of 16.9 nM.

B14: MOR06189 Fab (Fab, V domains shown)
VH: QVQLVESGGGLVQPGGSLRLSCAASGFTFSSYYMNWVRQAPGKGLEWVSAINMIGNVTNYADSVKGRFTISRDNSKNTLYLQMNSLRAEDTAVYYCARDLPLVYTGFAYWGQGTLVTVSS
VL: DIELTQPPSVSVAPGQTARISCSGDNLRHYYVYWYQQKPGQAPVLVIYGDSKRPSGIPERFSGSNSGNTATLTISGTQAEDEADYYCQTYTGGASLVFGGGTKLTVL
notes: Fab format
Regarding B14, the Kd worked out at 0.0247 nM in experiment [2] and 4.95 nM in experiment [3]. Besides, in the experiment with human CD38 on cells, a half-maximal effect (EC50) was put at 9.41 nM.

B15: MOR06192 IgG (antibody, V domains shown)
VH: QVQLVESGGGLVQPGGSLRLSCAASGFTFSSYYMNWVRQAPGKGLEWVSVISPGGEAKSYADSVKGRFTISRDNSKNTLYLQMNSLRAEDTAVYYCARDLPLVYTGFAYWGQGTLVTVSS
VL: DIELTQPPSVSVAPGQTARISCSGDNLRHYYVYWYQQKPGQAPVLVIYGDSKRPSGIPERFSGSNSGNTATLTISGTQAEDEADYYCQTYTGGASLVFGGGTKLTVLG
notes: copies: 2 + 2
With B15, the “ELISA CD38 Fc-Fusion protein (% Reactivity of MOR03087)” value in experiment [1] is 111%.

B16: MOR06190 Fab (Fab, V domains shown)
VH: QVQLVESGGGLVQPGGSLRLSCAASGFTFSSYYMNWVRQAPGKGLEWVSYINPNGMMTNYADSVKGRFTISRDNSKNTLYLQMNSLRAEDTAVYYCARDLPLVYTGFAYWGQGTLVTVSS
VL: DIELTQPPSVSVAPGQTARISCSGDNLRHYYVYWYQQKPGQAPVLVIYGDSKRPSGIPERFSGSNSGNTATLTISGTQAEDEADYYCQTYTGGASLVFGGGTKLTVL
notes: Fab format
As for B16, the Kd in experiment [2] worked out at 0.0488 nM; in experiment [3] it was 15.7 nM. The EC50 with human CD38 on cells came to 11.7 nM.

B17: MOR06204 Fab (Fab, V domains shown)
VH: QVQLVESGGGLVQPGGSLRLSCAASGFTFSSYAMNWVRQAPGKGLEWVSHIRKKNTSYTTEYAASVKGRFTISRDNSKNTLYLQMNSLRAEDTAVYYCAREDGSYMTDYFAYWGQGTLVTVSS
VL: DIELTQPPSVSVAPGQTARISCSGDNIGHYYVSWYQQKPGQAPVLVIYSDSNRPSGIPERFSGSNSGNTATLTISGTQAEDEADYYCQSYNGTYVFGGGTKLTVL
notes: Fab format
On to B17, for which the results for the Kd in experiment [2] and in experiment [3] were 0.0585 nM and 22.7 nM, respectively. The molecule further came in with an EC50 in the experiment with human CD38 on cells of 6.36 nM.

B18: MOR06214 Fab (Fab, V domains shown)
VH: QVQLVESGGGLVQPGGSLRLSCAASGFTFSSYAMNWVRQAPGKGLEWVSNIQRVGSTYYADSVKGRFTISRDNSKNTLYLQMNSLRAEDTAVYYCAREDGSYMTDYFAYWGQGTLVTVSS
VL: DIELTQPPSVSVAPGQTARISCSGDNIGHYYVSWYQQKPGQAPVLVIYSDSNRPSGIPERFSGSNSGNTATLTISGTQAEDEADYYCQSYNGTYVFGGGTKLTVL
notes: Fab format
On to B18, for which the figures for the Kd in experiment [2] and in experiment [3] were 0.0936 nM and 5.26 nM, respectively. The response in the experiment with human CD38 on cells was half-maximal at 5.32 nM (EC50).
